{"source": "patent US20250127807A1", "about": "“TREATMENT OF VAGINAL DYSBIOTIC CONDITIONS WITH ASSOCIATED ELEVATED VAGINAL CALPROTECTIN” (priority 2022, published 2025)", "molecules": {"B1": {"name": "lactoferrin (protein, UniProt P24627 20-708, looked up)", "Lactotransferrin": "APRKNVRWCTISQPEWFKCRRWQWRMKKLGAPSITCVRRAFALECIRAIAEKKADAVTLDGGMVFEAGRDPYKLRPVAAEIYGTKESPQTHYYAVAVVKKGSNFQLDQLQGRKSCHTGLGRSAGWIIPMGILRPYLSWTESLEPLQGAVAKFFSASCVPCIDRQAYPNLCQLCKGEGENQCACSSREPYFGYSGAFKCLQDGAGDVAFVKETTVFENLPEKADRDQYELLCLNNSRAPVDAFKECHLAQVPSHAVVARSVDGKEDLIWKLLSKAQEKFGKNKSRSFQLFGSPPGQRDLLFKDSALGFLRIPSKVDSALYLGSRYLTTLKNLRETAEEVKARYTRVVWCAVGPEEQKKCQQWSQQSGQNVTCATASTTDDCIVLVLKGEADALNLDGGYIYTAGKCGLVPVLAENRKSSKHSSLDCVLRPTEGYLAVAVVKKANEGLTWNSLKDKKSCHTAVDRTAGWNIPMGLIVNQTGSCAFDEFFSQSCAPGADPKSRLCALCAGDDQGLDKCVPNSKEKYYGYTGAFRCLAEDVGDVAFVKNDTVWENTNGESTADWAKNLNREDFRLLCLDGTRKPVTEAQSCHLAVAPNHAVVSRSDRAAHVKQVLLHQQALFGKNGKNCPDKFCLFKSETKNLLFNDNTECLAKLGGRPTYEEYLGTEYVTAIANLKKCSTSPLLEACAFLTR"}}, "design": "species or system women", "settings": "in vivo", "procedure": "Elevated levels of calprotectin in BV and in L iners-dominated vaginal microbiomes sequester manganese and zinc, preventing growth of L crispatus its maintenance of a healthy vaginal microbiome. […] Six women each received 3 doses of formulation Z2 separated by 48 hours. Vaginal fluid swabs were collected at t=0, 2, 4, 8, 12, 18, 24, 30, 36, and 42 hours post dose and vaginal fluid concentrations of lactoferrin and mannitol were determined. Average concentrations for the combined 18 dose administrations were obtained based on calculation of Area Under Curve for the locally estimated scatterplot smoothing (Loess) profile of lactoferrin and mannitol concentrations assuming 6 mL volume of distribution. The average concentration of lactoferrin was 33 mg/mL and the average concentrations of mannitol was 20 mg/mL. Average concentrations of both substances correspond to 0.1 fraction or 10% of the administered dose, 300 mg lactoferrin and 195 mg mannitol per Z2 tablet respectively. The 0.1 factor was used to estimate the expected average elemental Mn concentration based on the initial dose per tablet."}
{"molecule": "B1", "values": [{"measurement": "average concentration as fraction of the administered dose", "value": 10, "unit": "%"}]}
